From patent publication US20150258192A1, “COMPOSITIONS AND METHODS FOR PREVENTING OR TREATING CHRONIC LUNG ALLOGRAFT DYSFUNCTION (CLAD) AND IDIOPATHIC PULMONARY FIBROSIS (IPF)” (priority 2014, published 2015)
No end group written: not given here.

Target: CHK2(I157T)(h) (Homo sapiens, UniProt O96017, I157T)
Test: Kinase Profiling Assay
Format: biochemical
Conditions: peptide 100 μM
How it was run: (§1)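 Radiometric filter-binding format: cationic substrate takes up labeled phosphate from ATP unless the inhibitor peptide blocks the kinase. Substrate bound to an anionic filter, scintillation-counted, normalized to 100% activity control. Duplicates; part of a 266-kinase selectivity panel for MK2 peptides.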

CHK2(I157T)(h), sequence (O96017 whole entry I157T): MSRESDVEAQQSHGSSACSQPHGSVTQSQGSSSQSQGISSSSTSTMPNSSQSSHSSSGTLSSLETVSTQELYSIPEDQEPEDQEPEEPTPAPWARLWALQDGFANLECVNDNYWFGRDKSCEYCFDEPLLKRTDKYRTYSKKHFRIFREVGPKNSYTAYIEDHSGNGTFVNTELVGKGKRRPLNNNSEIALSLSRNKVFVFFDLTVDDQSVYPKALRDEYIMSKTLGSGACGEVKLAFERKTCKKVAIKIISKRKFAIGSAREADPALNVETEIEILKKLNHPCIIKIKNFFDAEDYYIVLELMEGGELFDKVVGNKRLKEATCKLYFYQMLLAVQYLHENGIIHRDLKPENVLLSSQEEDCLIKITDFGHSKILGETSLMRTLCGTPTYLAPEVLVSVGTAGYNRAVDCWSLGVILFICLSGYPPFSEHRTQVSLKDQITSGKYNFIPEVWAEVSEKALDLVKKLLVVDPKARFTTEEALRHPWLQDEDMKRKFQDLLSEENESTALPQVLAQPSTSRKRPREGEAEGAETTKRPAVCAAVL

Sequence | % activity
FAKLAARLYRKALARQLGVAA [MMI-0300] | 43%
HRRIKAWLKKIKALARQLGVAA (Mammal) [MMI-0500] | 3%
KAFAKLAARLYRKALARQLGVAA [MMI-0400] | 41%
YARAAARQARAKALARQLGVAA [MMI-0100] | 97%
YARAAARQARAKALNRQLGVA (Mammal) [MMI-0200] | 85%

Target: T1, Hck(h) activated (Homo sapiens, UniProt P08631)
T1 construct: purchased Millipore
T1 sequence (P08631 whole entry): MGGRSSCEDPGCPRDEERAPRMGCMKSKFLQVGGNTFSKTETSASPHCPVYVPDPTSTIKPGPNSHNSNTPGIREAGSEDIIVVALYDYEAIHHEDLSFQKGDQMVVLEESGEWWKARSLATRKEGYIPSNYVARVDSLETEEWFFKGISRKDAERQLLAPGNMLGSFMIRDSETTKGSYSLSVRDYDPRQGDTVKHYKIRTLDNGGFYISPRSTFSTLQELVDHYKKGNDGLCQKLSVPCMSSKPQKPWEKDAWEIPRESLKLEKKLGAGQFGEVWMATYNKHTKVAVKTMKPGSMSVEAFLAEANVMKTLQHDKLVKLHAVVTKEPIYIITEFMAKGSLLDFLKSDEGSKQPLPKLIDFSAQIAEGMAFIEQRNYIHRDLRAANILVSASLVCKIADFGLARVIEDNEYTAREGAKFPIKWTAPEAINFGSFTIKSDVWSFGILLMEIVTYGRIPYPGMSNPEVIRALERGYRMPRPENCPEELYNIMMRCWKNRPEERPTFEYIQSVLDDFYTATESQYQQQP
Test: Kinase Profiling Assay
Format: biochemical
Conditions: peptide 100 μM
How it was run: as §1

Sequence | % activity
FAKLAARLYRKALARQLGVAA [MMI-0300] | 82%
HRRIKAWLKKIKALARQLGVAA (Mammal) [MMI-0500] | 67%
KAFAKLAARLYRKALARQLGVAA [MMI-0400] | 81%
YARAAARQARAKALNRQLGVA (Mammal) [MMI-0200] | 100%

Target: T2, ZAP-70(h) (Homo sapiens, UniProt P43403)
T2 sequence (P43403 1-619): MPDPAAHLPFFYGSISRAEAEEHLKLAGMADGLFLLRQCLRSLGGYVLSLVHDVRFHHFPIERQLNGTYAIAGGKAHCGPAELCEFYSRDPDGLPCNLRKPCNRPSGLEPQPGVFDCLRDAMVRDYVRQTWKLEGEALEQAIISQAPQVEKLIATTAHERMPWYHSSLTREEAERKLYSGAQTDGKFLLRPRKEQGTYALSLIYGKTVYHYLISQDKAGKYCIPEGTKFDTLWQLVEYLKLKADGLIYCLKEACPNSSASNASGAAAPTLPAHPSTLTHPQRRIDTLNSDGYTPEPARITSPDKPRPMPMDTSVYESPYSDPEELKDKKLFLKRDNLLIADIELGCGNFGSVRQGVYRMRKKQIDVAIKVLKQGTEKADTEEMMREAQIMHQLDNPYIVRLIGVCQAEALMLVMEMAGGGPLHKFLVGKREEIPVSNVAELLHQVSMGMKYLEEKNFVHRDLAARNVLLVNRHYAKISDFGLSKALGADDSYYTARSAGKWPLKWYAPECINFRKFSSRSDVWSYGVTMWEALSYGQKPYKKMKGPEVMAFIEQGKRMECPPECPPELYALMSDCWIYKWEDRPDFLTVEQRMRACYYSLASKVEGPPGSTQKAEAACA
Test: Kinase Profiling Assay
Format: biochemical
Conditions: peptide 100 μM
How it was run: as §1

Sequence | % activity
FAKLAARLYRKALARQLGVAA [MMI-0300] | 75%
HRRIKAWLKKIKALARQLGVAA (Mammal) [MMI-0500] | 1%
KAFAKLAARLYRKALARQLGVAA [MMI-0400] | 33%
YARAAARQARAKALARQLGVAA [MMI-0100] | 79%
YARAAARQARAKALNRQLGVA (Mammal) [MMI-0200] | 58%

Target: T3, Lck(h) activated (Homo sapiens, UniProt P06239)
T3 construct: purchased Millipore
T3 sequence (P06239 whole entry): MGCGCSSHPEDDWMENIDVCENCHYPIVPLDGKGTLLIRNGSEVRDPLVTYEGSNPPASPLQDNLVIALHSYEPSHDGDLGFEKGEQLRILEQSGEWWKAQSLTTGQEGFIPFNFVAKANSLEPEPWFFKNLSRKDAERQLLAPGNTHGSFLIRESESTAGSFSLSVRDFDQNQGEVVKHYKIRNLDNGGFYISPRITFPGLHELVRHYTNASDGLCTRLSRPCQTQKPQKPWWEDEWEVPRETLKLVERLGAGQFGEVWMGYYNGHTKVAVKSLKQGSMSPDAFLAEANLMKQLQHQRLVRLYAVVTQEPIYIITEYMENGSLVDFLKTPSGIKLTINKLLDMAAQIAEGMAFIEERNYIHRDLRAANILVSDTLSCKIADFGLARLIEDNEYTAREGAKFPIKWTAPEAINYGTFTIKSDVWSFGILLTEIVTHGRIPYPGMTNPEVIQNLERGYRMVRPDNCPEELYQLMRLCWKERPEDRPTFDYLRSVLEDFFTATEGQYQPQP
Test: Kinase Profiling Assay
Format: biochemical
Conditions: peptide 100 μM
How it was run: as §1

Sequence | % activity
FAKLAARLYRKALARQLGVAA [MMI-0300] | 243%
HRRIKAWLKKIKALARQLGVAA (Mammal) [MMI-0500] | 76%
KAFAKLAARLYRKALARQLGVAA [MMI-0400] | 216%
YARAAARQARAKALNRQLGVA (Mammal) [MMI-0200] | 90%

Target: PRK2(h) (Homo sapiens, UniProt Q16513)
Sequence (Q16513 whole entry): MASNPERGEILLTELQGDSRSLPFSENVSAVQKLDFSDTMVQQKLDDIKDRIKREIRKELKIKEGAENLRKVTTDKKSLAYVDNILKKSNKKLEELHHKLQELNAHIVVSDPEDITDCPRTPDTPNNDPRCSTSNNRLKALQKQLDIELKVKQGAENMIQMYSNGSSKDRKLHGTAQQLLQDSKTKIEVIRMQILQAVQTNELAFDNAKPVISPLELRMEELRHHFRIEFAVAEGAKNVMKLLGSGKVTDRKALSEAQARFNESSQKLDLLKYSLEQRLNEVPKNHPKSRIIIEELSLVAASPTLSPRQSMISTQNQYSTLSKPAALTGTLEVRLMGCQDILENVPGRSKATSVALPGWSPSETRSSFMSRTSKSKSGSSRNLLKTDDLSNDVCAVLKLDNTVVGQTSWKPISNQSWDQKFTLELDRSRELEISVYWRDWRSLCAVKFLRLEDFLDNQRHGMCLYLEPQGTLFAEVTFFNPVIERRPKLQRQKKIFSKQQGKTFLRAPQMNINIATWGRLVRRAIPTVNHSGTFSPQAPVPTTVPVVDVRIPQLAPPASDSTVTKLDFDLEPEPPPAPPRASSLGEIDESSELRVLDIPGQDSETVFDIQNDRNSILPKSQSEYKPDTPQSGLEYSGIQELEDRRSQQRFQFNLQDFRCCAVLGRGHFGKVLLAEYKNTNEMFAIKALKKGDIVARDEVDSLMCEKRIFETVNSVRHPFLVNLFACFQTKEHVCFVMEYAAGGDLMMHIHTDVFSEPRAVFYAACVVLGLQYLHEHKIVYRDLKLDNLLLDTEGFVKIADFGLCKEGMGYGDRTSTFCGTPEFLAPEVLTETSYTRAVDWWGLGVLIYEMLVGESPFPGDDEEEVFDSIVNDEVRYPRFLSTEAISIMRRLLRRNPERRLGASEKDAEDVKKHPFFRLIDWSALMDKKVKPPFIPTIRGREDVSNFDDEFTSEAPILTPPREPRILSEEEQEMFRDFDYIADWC
Test: Kinase Profiling Assay
Format: biochemical
Conditions: peptide 100 μM
How it was run: as §1

Sequence | % activity
FAKLAARLYRKALARQLGVAA [MMI-0300] | 33%
HRRIKAWLKKIKALARQLGVAA (Mammal) [MMI-0500] | 7%
KAFAKLAARLYRKALARQLGVAA [MMI-0400] | 27%
YARAAARQARAKALARQLGVAA [MMI-0100] | 72%
YARAAARQARAKALNRQLGVA (Mammal) [MMI-0200] | 74%

Target: Ret(V804M)(h) (Homo sapiens, UniProt P07949, V804M)
Test: Kinase Profiling Assay
Format: biochemical
Conditions: peptide 100 μM
How it was run: as §1

Sequence | % activity
FAKLAARLYRKALARQLGVAA [MMI-0300] | 95%
HRRIKAWLKKIKALARQLGVAA (Mammal) [MMI-0500] | 36%
KAFAKLAARLYRKALARQLGVAA [MMI-0400] | 87%
YARAAARQARAKALARQLGVAA [MMI-0100] | 92%

Target: PKCη(h) (Homo sapiens, UniProt P24723)
Sequence (P24723 whole entry): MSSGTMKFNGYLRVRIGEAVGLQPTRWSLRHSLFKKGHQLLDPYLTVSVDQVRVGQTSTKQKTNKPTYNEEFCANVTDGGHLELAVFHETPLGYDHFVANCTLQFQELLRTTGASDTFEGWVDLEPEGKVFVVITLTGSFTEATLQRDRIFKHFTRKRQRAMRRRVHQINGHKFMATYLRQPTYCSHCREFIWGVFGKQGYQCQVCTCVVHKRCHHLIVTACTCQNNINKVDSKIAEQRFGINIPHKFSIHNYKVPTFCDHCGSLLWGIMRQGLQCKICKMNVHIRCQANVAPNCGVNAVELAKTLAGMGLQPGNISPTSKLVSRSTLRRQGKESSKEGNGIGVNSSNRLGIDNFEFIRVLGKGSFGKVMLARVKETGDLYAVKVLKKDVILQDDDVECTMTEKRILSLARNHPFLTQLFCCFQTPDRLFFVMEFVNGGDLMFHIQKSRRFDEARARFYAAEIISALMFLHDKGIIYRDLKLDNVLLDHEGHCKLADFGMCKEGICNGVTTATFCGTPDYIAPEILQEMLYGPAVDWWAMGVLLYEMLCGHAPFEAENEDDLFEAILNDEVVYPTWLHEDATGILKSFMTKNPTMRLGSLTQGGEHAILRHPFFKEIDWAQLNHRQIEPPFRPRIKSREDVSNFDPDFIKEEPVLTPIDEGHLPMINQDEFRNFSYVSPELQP
Test: Kinase Profiling Assay
Format: biochemical
Conditions: peptide 100 μM
How it was run: as §1

Sequence | % activity
HRRIKAWLKKIKALARQLGVAA (Mammal) [MMI-0500] | 45%
KAFAKLAARLYRKALARQLGVAA [MMI-0400] | 98%
YARAAARQARAKALNRQLGVA (Mammal) [MMI-0200] | 101%

Target: T4, MST3(h) (Homo sapiens, UniProt Q9Y6E0)
T4 construct: purchased Millipore
T4 sequence (Q9Y6E0 whole entry): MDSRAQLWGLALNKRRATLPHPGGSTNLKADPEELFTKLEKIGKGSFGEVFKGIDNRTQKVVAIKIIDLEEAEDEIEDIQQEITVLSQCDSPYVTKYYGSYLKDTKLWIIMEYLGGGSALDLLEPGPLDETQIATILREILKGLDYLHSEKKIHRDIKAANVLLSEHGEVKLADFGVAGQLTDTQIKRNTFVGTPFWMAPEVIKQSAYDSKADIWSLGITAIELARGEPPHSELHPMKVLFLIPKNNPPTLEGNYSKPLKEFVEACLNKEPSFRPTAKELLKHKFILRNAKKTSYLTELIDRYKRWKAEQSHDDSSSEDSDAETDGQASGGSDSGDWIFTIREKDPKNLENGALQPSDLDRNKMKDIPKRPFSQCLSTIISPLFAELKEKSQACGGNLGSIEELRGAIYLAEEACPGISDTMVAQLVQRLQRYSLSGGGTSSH
Test: Kinase Profiling Assay
Format: biochemical
Conditions: peptide 100 μM
How it was run: as §1

Sequence | % activity
FAKLAARLYRKALARQLGVAA [MMI-0300] | 45%
HRRIKAWLKKIKALARQLGVAA (Mammal) [MMI-0500] | 4%
KAFAKLAARLYRKALARQLGVAA [MMI-0400] | 36%
YARAAARQARAKALNRQLGVA (Mammal) [MMI-0200] | 95%

Target: T5, IRR(h) (Homo sapiens, UniProt P14616)
T5 construct: purchased Millipore
T5 sequence (P14616 27-1297): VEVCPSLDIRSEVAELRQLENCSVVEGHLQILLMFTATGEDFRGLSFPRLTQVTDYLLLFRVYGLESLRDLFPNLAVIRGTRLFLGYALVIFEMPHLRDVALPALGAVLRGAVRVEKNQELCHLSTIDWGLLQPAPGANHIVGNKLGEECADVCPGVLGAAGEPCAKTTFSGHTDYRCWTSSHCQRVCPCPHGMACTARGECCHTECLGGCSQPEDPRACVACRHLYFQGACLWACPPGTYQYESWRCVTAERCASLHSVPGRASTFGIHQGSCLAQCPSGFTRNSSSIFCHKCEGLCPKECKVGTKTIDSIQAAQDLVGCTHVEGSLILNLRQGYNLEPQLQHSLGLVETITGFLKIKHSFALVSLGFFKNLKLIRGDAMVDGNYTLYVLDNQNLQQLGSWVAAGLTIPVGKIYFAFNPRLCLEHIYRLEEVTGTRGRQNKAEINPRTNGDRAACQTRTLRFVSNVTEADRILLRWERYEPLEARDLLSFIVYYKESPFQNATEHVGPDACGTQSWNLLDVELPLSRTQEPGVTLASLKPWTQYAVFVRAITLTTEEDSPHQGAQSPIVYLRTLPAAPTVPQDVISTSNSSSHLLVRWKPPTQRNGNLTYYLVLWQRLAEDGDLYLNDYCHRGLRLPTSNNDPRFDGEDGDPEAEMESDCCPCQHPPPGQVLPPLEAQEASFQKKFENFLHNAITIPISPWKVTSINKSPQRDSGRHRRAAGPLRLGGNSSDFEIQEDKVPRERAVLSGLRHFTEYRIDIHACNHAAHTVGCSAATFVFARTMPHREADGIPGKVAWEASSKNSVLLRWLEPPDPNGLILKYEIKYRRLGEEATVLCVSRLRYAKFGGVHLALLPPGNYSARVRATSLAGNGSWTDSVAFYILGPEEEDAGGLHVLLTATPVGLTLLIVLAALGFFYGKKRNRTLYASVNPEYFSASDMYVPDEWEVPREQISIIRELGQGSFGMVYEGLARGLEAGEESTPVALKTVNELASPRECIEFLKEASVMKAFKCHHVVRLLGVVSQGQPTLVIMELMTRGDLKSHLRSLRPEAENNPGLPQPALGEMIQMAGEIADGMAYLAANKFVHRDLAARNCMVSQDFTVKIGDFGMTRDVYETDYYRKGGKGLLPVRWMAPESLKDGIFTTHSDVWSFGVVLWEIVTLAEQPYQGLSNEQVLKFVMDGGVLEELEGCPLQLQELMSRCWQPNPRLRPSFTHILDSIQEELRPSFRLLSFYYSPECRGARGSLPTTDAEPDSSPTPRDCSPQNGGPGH
Test: Kinase Profiling Assay
Format: biochemical
Conditions: peptide 100 μM
How it was run: as §1

Sequence | % activity
FAKLAARLYRKALARQLGVAA [MMI-0300] | 8%
HRRIKAWLKKIKALARQLGVAA (Mammal) [MMI-0500] | 10%
KAFAKLAARLYRKALARQLGVAA [MMI-0400] | 8%
YARAAARQARAKALARQLGVAA [MMI-0100] | 85%
YARAAARQARAKALNRQLGVA (Mammal) [MMI-0200] | 69%

Target: T6, Met(Y1248D)(h) (Homo sapiens, UniProt P08581, Y1230D)
T6 construct: purchased Millipore
Test: Kinase Profiling Assay
Format: biochemical
Conditions: peptide 100 μM
How it was run: as §1

Sequence | % activity
HRRIKAWLKKIKALARQLGVAA (Mammal) [MMI-0500] | 218%
KAFAKLAARLYRKALARQLGVAA [MMI-0400] | 31%
YARAAARQARAKALARQLGVAA [MMI-0100] | 87%
YARAAARQARAKALNRQLGVA (Mammal) [MMI-0200] | 118%

Target: T7, EphB2(h) (Homo sapiens, UniProt P29323)
T7 sequence (P29323 19-1055): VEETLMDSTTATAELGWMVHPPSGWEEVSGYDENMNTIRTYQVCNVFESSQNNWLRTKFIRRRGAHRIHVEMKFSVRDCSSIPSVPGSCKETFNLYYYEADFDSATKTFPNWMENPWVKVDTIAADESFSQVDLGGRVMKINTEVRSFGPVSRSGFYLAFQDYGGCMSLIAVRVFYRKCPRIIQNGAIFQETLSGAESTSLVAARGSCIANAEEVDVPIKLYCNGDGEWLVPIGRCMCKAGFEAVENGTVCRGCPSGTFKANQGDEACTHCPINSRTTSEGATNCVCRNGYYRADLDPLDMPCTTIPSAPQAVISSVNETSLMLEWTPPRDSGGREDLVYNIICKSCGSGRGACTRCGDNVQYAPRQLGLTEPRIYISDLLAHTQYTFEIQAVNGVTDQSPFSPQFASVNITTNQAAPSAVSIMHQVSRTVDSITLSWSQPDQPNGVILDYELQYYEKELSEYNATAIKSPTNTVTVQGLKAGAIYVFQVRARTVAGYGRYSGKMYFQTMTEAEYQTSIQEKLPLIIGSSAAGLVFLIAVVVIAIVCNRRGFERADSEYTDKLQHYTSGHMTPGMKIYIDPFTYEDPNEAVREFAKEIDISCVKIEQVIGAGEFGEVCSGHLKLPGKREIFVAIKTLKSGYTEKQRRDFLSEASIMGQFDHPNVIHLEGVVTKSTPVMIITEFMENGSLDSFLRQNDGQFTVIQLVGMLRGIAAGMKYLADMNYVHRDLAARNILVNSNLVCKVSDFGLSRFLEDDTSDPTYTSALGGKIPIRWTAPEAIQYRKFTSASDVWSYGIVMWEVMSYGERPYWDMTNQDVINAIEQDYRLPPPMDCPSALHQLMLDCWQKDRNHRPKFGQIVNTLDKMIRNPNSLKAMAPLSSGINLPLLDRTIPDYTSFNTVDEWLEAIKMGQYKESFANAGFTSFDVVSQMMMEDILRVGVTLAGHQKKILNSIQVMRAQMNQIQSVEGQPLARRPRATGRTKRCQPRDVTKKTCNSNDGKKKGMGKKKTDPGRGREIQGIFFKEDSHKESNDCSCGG
Test: Kinase Profiling Assay
Format: biochemical
Conditions: peptide 100 μM
How it was run: as §1

Sequence | % activity
FAKLAARLYRKALARQLGVAA [MMI-0300] | 18%
HRRIKAWLKKIKALARQLGVAA (Mammal) [MMI-0500] | 70%
KAFAKLAARLYRKALARQLGVAA [MMI-0400] | 22%
YARAAARQARAKALARQLGVAA [MMI-0100] | 68%
YARAAARQARAKALNRQLGVA (Mammal) [MMI-0200] | 128%
